From article PMC5505973
pKd: −log10 of the molar value.

Test system: Tal7 (His-Tal7) (Xanthomonas oryzae pv. oryzicola RS105)
Assay: MST

| Substance | pKd |
| --- | --- |
| Os09g29100 promoter MST fragment | 5.65 |
| Os12g42970 promoter MST fragment | 5.53 |
